Target: T1, p53 peptide on HLA-A*02:01 (human)
T1 peptide: STPPPGTRV
Experiment: binding, other

binding result: recognises
B1: c149scTCR (TCR, V domains shown)
Valpha: QKVTQTQTSISVMEKTTVTMDCVYETRDSSYFLFWYKQTASGEIVFLIRQDSYKKENATEGHYSLNFQKPKSSIGLIITATQIEDSAVYFCAMRDTNAYKVIFGKGTHLHVLP
Vbeta: EAAVTQSPRSKVAVTGGKVTLSCHQTNNHDYMYWYRQDTGHGLRLIHYSYVADSTEKGDIPDGYKASRPSQENFSLILELASLSQTAVYFCASSPHSYEQYFGPGTRLTVL

Source: patent US20260092097A1 (published 2026)
